Measurements taken from patent publication US20040209800A1, “Use of mx gtpases in the prognosis and treatment of cancer” (priority 2001, published 2004).
“Also recorded” adds a separate entry of the source.

Legend:
PC-3 cells = test: MxA protein induction, immunohistochemistry and Western blot; format: cell-based, human; settings: 1000 IU of IFN-α/mL, 24 hours
Procedure: (§1) PC-3 and PC-3M test cells also were treated with recombinant IFN-α (Novartis Pharma—Basel, Switzerland) (1000 IU of IFN-α/mL), grown for 24 hours, fixed, permeabilized, and subjected to immunohistochemical analysis using anti-MxA antibody and DAPI nuclear counterstaining to locate individual cells. […] Western blotting with […] using 100 μg cell lysates confirmed IFN-α-induced increase in MxA expression in both cell lines.

PC-3M cells [1] = test: as above; format: cell-based, human; settings: 1000 IU of IFN-α/mL, 24 hours
Procedure: as §1

PC-3M cells [2] = test: In vitro motility, migration through 8-μm pore membrane; format: cell-based, human; settings: 24 hours
Procedure: The PC-3M cells of Example 1 were transfected with a pCIneo plasmid (Promega, Madison, Wis.) expressing full-length MxA or a plasmid constructed from pHβ Apr-1 comprising an MxA sequence operably linked to a CMV promoter, and two stable cell lines were selected. PC-3M cells stably transfected with a plasmid expressing β-galactosidase (β-gal) were used as a control. MXA expression was not detected in the PC-3M β-gal cells.
The motility of PC-3M transfectants in vitro was tested by measuring the ability of the cells to migrate through pores in a membrane. Briefly, FALCON cell culture inserts with an 8-μm pore-size PET membrane (Fisher Scientific, Franklin Lake, N.J.) were placed into the wells of a 24-well plate, each well containing 0.5 ml of complete medium (RPMI 1640 with 10% FBS, 1% antimycotic-antibiotic solution, and 500 μg mL^−1 G418). Control and MxA-transfected cells were trypsinized, suspended at 1.5×10^5 cells/ml in complete medium, and 350μl of the cell suspension was added to each insert. Following incubation for 24 hours at 37° C., cells from the upper surface of the membrane were removed by scrubbing with a cotton swab. Cells that had migrated through the insert and adhered to the bottom of the membrane were Wright stained using the CAMCO Quik Stain kit (Fisher Scientific), visualized using a Zeiss Axiophot microscope or Leica DMIRB microscope, and counted.

LOX cells = test: In vitro invasion, BIOCOAT Matrigel invasion chamber; format: cell-based, human; settings: stably transfected LOX cells vs β-gal control LOX cells
PC-3M cells [3] = test: Primary tumor growth assay; format: in vivo, beige/SCID mice; settings: 2×10^6 PC3M-MxA cells subcutaneously; β-gal control 29.8±3.4 days
Procedure: The effect of MxA expression on tumor growth in vivo was first tested using a primary tumor growth assay. 2×10^6 recombinant PC-3M cells expressing […] MxA (PC3M-MxA) or 2×10^6 recombinant PC-3M-β-gal cells (expressing β-gal) were injected subcutaneously into 30 beige/SCID mice (Charles River Laboratories, Wilmington, Mass.), and the time to formation of a 2-cm subcutaneous tumor (as measured using Vernier calipers) was determined by monitoring the mice at least three times weekly for evidence of tumor development, quantification of tumor size, and evidence of tumor/metastasis-associated morbidity. Subcutaneous tumor size was quantified using Vernier Calipers. Criteria for sacrifice included tumor growth to greater than 2.0 cm, ill thrift, anorexia, dehydration, decreased activity and grooming behavior, and dyspnea.

PC-3M cells [4] = test: Experimental hepatic metastasis assay; format: in vivo, beige/SCID mice; settings: 2×10^6 PC3M-MxA cells into the spleen; β-gal control 23.3±3.3 days
Procedure: The in vivo effects of MxA expression on tumor growth and metastatic potential was also tested using an experimental hepatic metastasis assay. Briefly, 2×10^6 cells from the PC3M-MxA cell line and the PC-3M-β-gal cell line were injected into the spleens of beige/SCID mice. Mice were monitored at least three times weekly for evidence of tumor development, quantification of tumor size, and evidence of tumor and/or metastasis-associated morbidity. Animal survival time was determined, and mean survival time was compared between the two treatment groups.

[5] = system: insoluble cytoskeletal matrix; test: Cytoskeletal extraction and anti-FLAG immunological analysis; format: cell-based; settings: transfected LOX cells, anti-FLAG antibody
Procedure: MxA-LOX cells and T103 MxA-LOX cells were subjected to immunological analysis using known techniques (see Choi et al., J. Biol. Chem., 272:28479-28484 (1997)) with an anti-FLAG antibody after cytoskeletal extraction, which removed all the soluble proteins, leaving only cytoskeleton-associated proteins. Cytoskeletal preparations were prepared by permeabilizing the cells with 1% Triton X-100 in PHEM buffer (60 mM piperazine-N-N′-bis(2-ethane-sulfonic acid) (PIPES; pH 6.9), 25 mM N-2-hydroxyethlypiperazine-N′-2-ethanesulfonic acid (HEPES), 2 mM MgCl2, and 10 mM ethylene glycol-bis(b-aminoethyl ether)-N,N,N′N′-tetraacetic acid (EGTA, pH 6.9)) for 2 minutes, fixing the cells with 3.7% formaldehyde for 10 minutes at room temperature (see Hartwig, J. Cell Biol. 118:1421-1442 (1992)). Fixed cells were incubated with appropriate primary and secondary antibodies and the nuclei counterstained with 4,6-daimidino-2-phenylinodole (DAPI). Cells were visualized with a Zeiss Axiophot microscope and images were captured using an Optronics CCD camera.
To further investigate the relationship between MxA and microtubules, soluble proteins were extracted from the LOX cells, using standard techniques, and the insoluble cytoskeletal matrix was examined for associated proteins.

tubulin = test: Coimmunoprecipitation with anti-α-tubulin and anti-MxA antibodies; format: binding; settings: transfected LOX cell lysates
Procedure: (§2) Immunoprecipitation was performed by known techniques (Bang et al., Proc. Natl. Acad. Sci. USA 91:5330-5334 (1994)). Briefly, cell lysates were obtained and incubated with the indicated antibodies overnight at 4° C. The immunocomplex was immobilized on protein A/G-Sepharose (Santa Cruz Biotechnologies), resolved on SDS-polyacrylamide gels, transferred to nitrocellulose filters, and immunoblotted with the indicated antibodies.
Using the LOX cells stably transfected with the […] MxA construct, as described in the preceding Examples, whole cell lysates were prepared and immunoprecipitated with anti-α-tubulin antibodies, anti-MxA antibodies, and protein A/protein G-coated Sepharose beads alone, and the resulting compositions were subjected to Western blotting with anti-FLAG antibody (Sigma).

actin = test: Coimmunoprecipitation with actin in PC-3 cells; format: binding, human; settings: endogenous MxA in PC-3 cells
Procedure: as §2

PC-3M cells [6] = test: Time-lapse video microscopy of cell motility; format: cell-based, human; settings: PC-3M-MxA vs PC-3M-β-gal cells, 250 minute recording
Procedure: Using time-lapse video microscopy, PC-3M cells stably transfected with an MxA construct (as described in Example 2) were observed and compared to control PC-3M-β-gal cells. Specifically, PC-3M-βgal and PC-3M-MxA cells were seeded in 25 cm^2 flasks and cultured for 24 hours. After 24 hours, the flasks were filled with pre-warmed complete medium and cell motility was observed using by phase-contrast microscopy using an Optronics cooled CCD camera mounted on a Leica DMIRB inverted microscope. During observation, the cells were maintained at 37° C. using an ASI 400 Air Stream Incubator (Nevtek—Burnsville, Va.). Time-lapse video microscopy (250 minute recording converted into 1 minute of playing time) was converted into QuickTime movies using Adobe Premier 5.1.

Molecule | level of MxA protein after exposure to IFN-α (PC-3 cells) | level of MxA protein after exposure to IFN-α (PC-3M cells [1]) | motility, % of the β-gal control cells (PC-3M cells [2]; PC-3M stably expressing MxA, lowest level seen) | motility, % lower than the β-gal control cells (PC-3M cells [2]; all MxA-expressing PC-3M cells, both cases tested) | in vitro invasive activity, % of control cells (LOX cells) | time to develop a 2-cm tumor mass (PC-3M cells [3]) | survival (PC-3M cells [4]) | association with insoluble cytoskeletal matrix after cytoskeletal extraction [5] | association with tubulin by coimmunoprecipitation (tubulin) | co-immunoprecipitation with actin (actin) | mobility of PC-3M cells by visual observation (PC-3M cells [6])
IFN-α | increased substantially | became detectable |  |  |  |  |  |  |  |  | 
MxA: full-length human MxA GTPase, 78 kDa, expressed from a transfected plasmid in PC-3M or LOX cells (protein) MVVSEVDIAKADPAAASHPLLLNGDATVAQKNPGSVAENNLCSQYEEKVRPCIDLIDSLRALGVEQDLALPAIAVIGDQSSGKSSVLEALSGVALPRGSGIVTRCPLVLKLKKLVNEDKWRGKVSYQDYEIEISDASEVEKEINKAQNAIAGEGMGISHELITLEISSRDVPDLTLIDLPGITRVAVGNQPADIGYKIKTLIKKYIQRQETISLVVVPSNVDIATTEALSMAQEVDPEGDRTIGILTKPDLVDKGTEDKVVDVVRNLVFHLKKGYMIVKCRGQQEIQDQLSLSEALQREKIFFENHPYFRDLLEEGKATVPCLAEKLTSELITHICKSLPLLENQIKETHQRITEELQKYGVDIPEDENEKMFFLIDKVNAFNQDITALMQGEETVGEEDIRLFTRLRHEFHKWSTIIENNFQEGHKILSRKIQKFENQYRGRELPGFVNYRTFETIVKQQIKALEEPAVDMLHTVTDMVRLAFTDVSIKNFEEFFNLHRTAKSKIEDIRAEQEREGEKLIRLHFQMEQIVYCQDQVYRGALQKVREKELEEEKKKKSWDFGAFQSSSATDSSMEEIFQHLMAYHQEASKRISSHIPLIIQFFMLQTYGQQLQKAMLQLLQDKDTYSWLLKERSDTSDKRKFLKERLARLTQARRRLAQFPG |  |  | 24.3% | at least 22.4% | 15.1% | 46.8 ± 9.9 days | 54.3 ± 11.2 days | remained bound to the matrix | associated with cell microtubules and particularly tubulin; also recorded: detected in the complex with tubulin | did not co-immunoprecipitate | significantly inhibited
T103 mutant MxA: FLAG-tagged MxA with threonine 103 mutated to alanine; the mutation inactivates GTPase activity (protein, left off: small tags and cut ends) MVVSEVDIAKADPAAASHPLLLNGDATVAQKNPGSVAENNLCSQYEEKVRPCIDLIDSLRALGVEQDLALPAIAVIGDQSSGKSSVLEALSGVALPRGSGIVARCPLVLKLKKLVNEDKWRGKVSYQDYEIEISDASEVEKEINKAQNAIAGEGMGISHELITLEISSRDVPDLTLIDLPGITRVAVGNQPADIGYKIKTLIKKYIQRQETISLVVVPSNVDIATTEALSMAQEVDPEGDRTIGILTKPDLVDKGTEDKVVDVVRNLVFHLKKGYMIVKCRGQQEIQDQLSLSEALQREKIFFENHPYFRDLLEEGKATVPCLAEKLTSELITHICKSLPLLENQIKETHQRITEELQKYGVDIPEDENEKMFFLIDKVNAFNQDITALMQGEETVGEEDIRLFTRLRHEFHKWSTIIENNFQEGHKILSRKIQKFENQYRGRELPGFVNYRTFETIVKQQIKALEEPAVDMLHTVTDMVRLAFTDVSIKNFEEFFNLHRTAKSKIEDIRAEQEREGEKLIRLHFQMEQIVYCQDQVYRGALQKVREKELEEEKKKKSWDFGAFQSSSATDSSMEEIFQHLMAYHQEASKRISSHIPLIIQFFMLQTYGQQLQKAMLQLLQDKDTYSWLLKERSDTSDKRKFLKERLARLTQARRRLAQFPG |  |  |  |  | 119% |  |  | undetectable; also recorded: washed out of the insoluble preparation | did not associate |  | 
